Test results as given in PMC6205234.

Molecular target: GST-NS1 (Influenza A virus (H3N2)) (UniProt P03495)
Test: fluorescence anisotropy

GST-NS1 (Influenza A virus (H3N2)), sequence (P03495 whole entry): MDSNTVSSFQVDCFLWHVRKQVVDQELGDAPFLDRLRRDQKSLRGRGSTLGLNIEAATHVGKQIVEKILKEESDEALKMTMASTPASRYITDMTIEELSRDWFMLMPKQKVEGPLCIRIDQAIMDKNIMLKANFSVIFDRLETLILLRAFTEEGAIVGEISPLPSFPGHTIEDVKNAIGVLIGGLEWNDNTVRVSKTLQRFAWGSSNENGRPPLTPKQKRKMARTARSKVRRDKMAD

Sequence: CCAUCCUCUACAGGCG / CGCCUGUAGAGGAUGG [dsRK1]
- Kd: 170 nM

Sequence: GCUAUCCAGAUUCUGAUU / GAAUCAGAAUCUGGAUAGC [dsCR1]
- Kd: 2400 nM

Sequence: GGGGGGGGGGGGGGGGGU [Poly (G)18]
- Kd: 1200 nM
